Paper PMC1636413 (Nucleic Acids Research, 2006)
Values joined by “and” are separate entries in the source; they are usually repeats but may differ in a detail not shown here. Equal entries are not always repeated.

Assays:
[1] = target: the molecule itself; assay: SEC
[2] = target: the molecule itself; assay: AUC
[3] = target: the molecule itself; assay: SEC; remark: listed apart in the source

Protein | stoichiometry N [1] | stoichiometry N [2] | stoichiometry N [3]
MutS800^CF (cysteine-free truncated E.coli MutS, residues 1-800, N-terminal His6-tagged) (domain or fragment, UniProt P23909 1-800, looked up) MSAIENFDAHTPMMQQYLRLKAQHPEILLFYRMGDFYELFYDDAKRASQLLDISLTKRGASAGEPIPMAGIPYHAVENYLAKLVNQGESVAIAEQIGDPATSKGPVERKVVRIVTPGTISDEALLQERQDNLLAAIWQDSKGFGYATLDISSGRFRLSEPADRETMAAELQRTNPAELLYAEDFAEMSLIEGRRGLRRRPLWEFEIDTARQQLNLQFGTRDLVGFGVENAPRGLSAAGALLQYAKDTQRTTLPHIRSITMEREQDSIIMDAATRRNLEITQNLAGGAENTLASVLDSTVTPMGSRMLKRWLHMPVRDTRVLLERQQTIGALQDFTAGLQPVLRQVGDLERILARLALRTARPRDLARMRHAFQQLPELRAQLETVDSAPVQALREKMGEFAELRDLLERAIIDTPPVLVRDGGVIASGYNEELDEWRALADGATDYLERLEVRERERTGLDTLKVGFNAVHGYYIQISRGQSHLAPINYMRRQTLKNAERYIIPELKEYEDKVLTSKGKALALEKQLYEELFDLLLPHLEALQQSASALAELDVLVNLAERAYTLNYTSPTFIDKPGIRITEGRHPVVEQVLNEPFIANPLNLSPQRRMLIITGPNMGGKSTYMRQTALIALMAYIGSYVPAQKVEIGPIDRIFTRVGAADDLASGRSTFMVEMTETANILHNATEYSLVLMDEIGRGTSTYDGLSLAWAVAENLANKIKALTLFATHYFELTQLPEKMEGVANVHLDALEHGDTIAFMHSVQDGAASKSYGLAVAALAGVPKEVIKRARQKLRELESIS | 2 |  | 
MutS-CTD (His6-tagged C-terminal domain of E.coli MutS, residues 801-853) (domain or fragment, UniProt P23909 801-853, looked up) PNAAATQVDGTQMSLLSVPEETSPAVEALENLDPDSLTPRQALEWIYRLKSLV |  | 4 | 2
MutS-CTD^D835R (domain or fragment, E.coli, UniProt P23909 801-853, looked up) PNAAATQVDGTQMSLLSVPEETSPAVEALENLDPRSLTPRQALEWIYRLKSLV |  | 2 | 
MutS-CTD^ΔHis6 (MutS-CTD with the N-terminal His6-tag removed by DAPase) (domain or fragment, E.coli, UniProt P23909 801-853, looked up) PNAAATQVDGTQMSLLSVPEETSPAVEALENLDPDSLTPRQALEWIYRLKSLV |  | 4 | 
MutS^CF (cysteine-free full-length E.coli MutS, N-terminal His6-tagged) (natural protein, UniProt P23909 1-853, looked up) MSAIENFDAHTPMMQQYLRLKAQHPEILLFYRMGDFYELFYDDAKRASQLLDISLTKRGASAGEPIPMAGIPYHAVENYLAKLVNQGESVAIAEQIGDPATSKGPVERKVVRIVTPGTISDEALLQERQDNLLAAIWQDSKGFGYATLDISSGRFRLSEPADRETMAAELQRTNPAELLYAEDFAEMSLIEGRRGLRRRPLWEFEIDTARQQLNLQFGTRDLVGFGVENAPRGLSAAGALLQYAKDTQRTTLPHIRSITMEREQDSIIMDAATRRNLEITQNLAGGAENTLASVLDSTVTPMGSRMLKRWLHMPVRDTRVLLERQQTIGALQDFTAGLQPVLRQVGDLERILARLALRTARPRDLARMRHAFQQLPELRAQLETVDSAPVQALREKMGEFAELRDLLERAIIDTPPVLVRDGGVIASGYNEELDEWRALADGATDYLERLEVRERERTGLDTLKVGFNAVHGYYIQISRGQSHLAPINYMRRQTLKNAERYIIPELKEYEDKVLTSKGKALALEKQLYEELFDLLLPHLEALQQSASALAELDVLVNLAERAYTLNYTSPTFIDKPGIRITEGRHPVVEQVLNEPFIANPLNLSPQRRMLIITGPNMGGKSTYMRQTALIALMAYIGSYVPAQKVEIGPIDRIFTRVGAADDLASGRSTFMVEMTETANILHNATEYSLVLMDEIGRGTSTYDGLSLAWAVAENLANKIKALTLFATHYFELTQLPEKMEGVANVHLDALEHGDTIAFMHSVQDGAASKSYGLAVAALAGVPKEVIKRARQKLRELESISPNAAATQVDGTQMSLLSVPEETSPAVEALENLDPDSLTPRQALEWIYRLKSLV | 4 and 2 |  | 
MutS^wt (E.coli MutS, full-length, N-terminal His6-tagged) (natural protein, UniProt P23909 1-853, looked up) MSAIENFDAHTPMMQQYLRLKAQHPEILLFYRMGDFYELFYDDAKRASQLLDISLTKRGASAGEPIPMAGIPYHAVENYLAKLVNQGESVAICEQIGDPATSKGPVERKVVRIVTPGTISDEALLQERQDNLLAAIWQDSKGFGYATLDISSGRFRLSEPADRETMAAELQRTNPAELLYAEDFAEMSLIEGRRGLRRRPLWEFEIDTARQQLNLQFGTRDLVGFGVENAPRGLCAAGCLLQYAKDTQRTTLPHIRSITMEREQDSIIMDAATRRNLEITQNLAGGAENTLASVLDCTVTPMGSRMLKRWLHMPVRDTRVLLERQQTIGALQDFTAGLQPVLRQVGDLERILARLALRTARPRDLARMRHAFQQLPELRAQLETVDSAPVQALREKMGEFAELRDLLERAIIDTPPVLVRDGGVIASGYNEELDEWRALADGATDYLERLEVRERERTGLDTLKVGFNAVHGYYIQISRGQSHLAPINYMRRQTLKNAERYIIPELKEYEDKVLTSKGKALALEKQLYEELFDLLLPHLEALQQSASALAELDVLVNLAERAYTLNYTCPTFIDKPGIRITEGRHPVVEQVLNEPFIANPLNLSPQRRMLIITGPNMGGKSTYMRQTALIALMAYIGSYVPAQKVEIGPIDRIFTRVGAADDLASGRSTFMVEMTETANILHNATEYSLVLMDEIGRGTSTYDGLSLAWACAENLANKIKALTLFATHYFELTQLPEKMEGVANVHLDALEHGDTIAFMHSVQDGAASKSYGLAVAALAGVPKEVIKRARQKLRELESISPNAAATQVDGTQMSLLSVPEETSPAVEALENLDPDSLTPRQALEWIYRLKSLV | 2 and 4 |  | 
MutS^CF/D835R (cysteine-free full-length E.coli MutS with D835R, N-terminal His6-tagged) (natural protein, UniProt P23909 1-853, looked up) MSAIENFDAHTPMMQQYLRLKAQHPEILLFYRMGDFYELFYDDAKRASQLLDISLTKRGASAGEPIPMAGIPYHAVENYLAKLVNQGESVAIAEQIGDPATSKGPVERKVVRIVTPGTISDEALLQERQDNLLAAIWQDSKGFGYATLDISSGRFRLSEPADRETMAAELQRTNPAELLYAEDFAEMSLIEGRRGLRRRPLWEFEIDTARQQLNLQFGTRDLVGFGVENAPRGLSAAGALLQYAKDTQRTTLPHIRSITMEREQDSIIMDAATRRNLEITQNLAGGAENTLASVLDSTVTPMGSRMLKRWLHMPVRDTRVLLERQQTIGALQDFTAGLQPVLRQVGDLERILARLALRTARPRDLARMRHAFQQLPELRAQLETVDSAPVQALREKMGEFAELRDLLERAIIDTPPVLVRDGGVIASGYNEELDEWRALADGATDYLERLEVRERERTGLDTLKVGFNAVHGYYIQISRGQSHLAPINYMRRQTLKNAERYIIPELKEYEDKVLTSKGKALALEKQLYEELFDLLLPHLEALQQSASALAELDVLVNLAERAYTLNYTSPTFIDKPGIRITEGRHPVVEQVLNEPFIANPLNLSPQRRMLIITGPNMGGKSTYMRQTALIALMAYIGSYVPAQKVEIGPIDRIFTRVGAADDLASGRSTFMVEMTETANILHNATEYSLVLMDEIGRGTSTYDGLSLAWAVAENLANKIKALTLFATHYFELTQLPEKMEGVANVHLDALEHGDTIAFMHSVQDGAASKSYGLAVAALAGVPKEVIKRARQKLRELESISPNAAATQVDGTQMSLLSVPEETSPAVEALENLDPRSLTPRQALEWIYRLKSLV | 2 |  | 
